We go through two substances from paper PMC3929599.

Assay [1] addresses mEGFP-labelled WASp (reciprocal tagging) (Drosophila). In words: FRET or BRET; FLIM-FRET, pixel-resolution 'Interaction' in the CNS of live Drosophila embryos at hours 15 and 21, and Polarplot estimate of the percentage of donor molecules undergoing FRET (hour not told for the percentages).
The target of assay [2] is mCherry::WASp (Wiskott-Aldrich Syndrome protein labelled with mCherry at its amino terminus) (Drosophila). As to the kind of experiment: FRET or BRET; FLIM-FRET (3D frequency-domain FLIM): mean mEGFP donor fluorescence lifetime in a CNS segment of live whole Drosophila embryos at hour 15; both proteins expressed in all neurons under elav-GAL4; baseline lifetime without FRET 2.56 ns; 10-20 embryos for each experiment. In general terms: In BRET a luciferase serves as donor, and the signal depends on an acceptor being close.

Assay [3] addresses WASp labelled with mCherry at its carboxyl terminus (Drosophila). Described as above.
In assay [4] the target is mCherry::WASp (Wiskott-Aldrich Syndrome protein labelled with mCherry at its amino terminus) (Drosophila). In words: FRET or BRET; FLIM-FRET, pixel-resolution 'Interaction' in the CNS of live Drosophila embryos at hours 15 and 21, and Polarplot estimate of the percentage of donor molecules undergoing FRET (hour not told for the percentages).

mCherry::WASp (Wiskott-Aldrich Syndrome protein labelled with mCherry at its amino terminus) (Drosophila), sequence (main, as listed by the source): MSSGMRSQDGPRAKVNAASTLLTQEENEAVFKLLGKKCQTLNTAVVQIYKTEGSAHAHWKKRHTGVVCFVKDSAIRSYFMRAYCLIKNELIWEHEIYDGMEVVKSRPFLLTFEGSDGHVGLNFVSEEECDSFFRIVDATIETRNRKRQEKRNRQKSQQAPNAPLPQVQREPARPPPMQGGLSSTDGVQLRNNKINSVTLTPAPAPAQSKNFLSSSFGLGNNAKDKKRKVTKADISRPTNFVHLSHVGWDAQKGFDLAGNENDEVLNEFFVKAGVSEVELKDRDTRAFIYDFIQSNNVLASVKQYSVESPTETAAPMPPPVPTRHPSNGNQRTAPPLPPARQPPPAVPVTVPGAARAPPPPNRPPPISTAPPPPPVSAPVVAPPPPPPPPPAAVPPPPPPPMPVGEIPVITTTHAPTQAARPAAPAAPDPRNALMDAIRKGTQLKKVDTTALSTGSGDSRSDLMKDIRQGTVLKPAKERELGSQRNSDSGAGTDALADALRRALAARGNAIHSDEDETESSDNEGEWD
WASp labelled with mCherry at its carboxyl terminus (Drosophila), sequence (main, as listed by the source): as above
mEGFP-labelled WASp (reciprocal tagging) (Drosophila), sequence (main, as listed by the source): as above

For the substance “mCherry-labelled Cdc42 (reciprocal tagging) (from UniProt P40793 1-191) (natural protein)”, the fraction of WASp interacting with Cdc42 in assay [1] is 30%.

As to “mEGFP::Cdc42 (cell division control protein 42 homolog labelled with mEGFP) (from UniProt P40793 1-191) (natural protein)”, the mean donor (mEGFP) fluorescence lifetime in assay [2] was determined as 2.45 ns; in assay [3] it was 2.44 ns. The fraction of Cdc42 interacting with WASp in assay [4] is 10%.
